# Data reported in paper PMC8718897 (Translational Oncology, 2021).
# B1: SIN3A (natural protein, UniProt Q96ST3 1-1273, looked up)
# chain: MKRRLDDQESPVYAAQQRRIPGSTEAFPHQHRVLAPAPPVYEAVSETMQSATGIQYSVTPSYQVSAMPQSSGSHGPAIAAVHSSHHHPTAVQPHGGQVVQSHAHPAPPVAPVQGQQQFQRLKVEDALSYLDQVKLQFGSQPQVYNDFLDIMKEFKSQSIDTPGVISRVSQLFKGHPDLIMGFNTFLPPGYKIEVQTNDMVNVTTPGQVHQIPTHGIQPQPQPPPQHPSQPSAQSAPAPAQPAPQPPPAKVSKPSQLQAHTPASQQTPPLPPYASPRSPPVQPHTPVTISLGTAPSLQNNQPVEFNHAINYVNKIKNRFQGQPDIYKAFLEILHTYQKEQRNAKEAGGNYTPALTEQEVYAQVARLFKNQEDLLSEFGQFLPDANSSVLLSKTTAEKVDSVRNDHGGTVKKPQLNNKPQRPSQNGCQIRRHPTGTTPPVKKKPKLLNLKDSSMADASKHGGGTESLFFDKVRKALRSAEAYENFLRCLVIFNQEVISRAELVQLVSPFLGKFPELFNWFKNFLGYKESVHLETYPKERATEGIAMEIDYASCKRLGSSYRALPKSYQQPKCTGRTPLCKEVLNDTWVSFPSWSEDSTFVSSKKTQYEEHIYRCEDERFELDVVLETNLATIRVLEAIQKKLSRLSAEEQAKFRLDNTLGGTSEVIHRKALQRIYADKAADIIDGLRKNPSIAVPIVLKRLKMKEEEWREAQRGFNKVWREQNEKYYLKSLDHQGINFKQNDTKVLRSKSLLNEIESIYDERQEQATEENAGVPVGPHLSLAYEDKQILEDAAALIIHHVKRQTGIQKEDKYKIKQIMHHFIPDLLFAQRGDLSDVEEEEEEEMDVDEATGAVKKHNGVGGSPPKSKLLFSNTAAQKLRGMDEVYNLFYVNNNWYIFMRLHQILCLRLLRICSQAERQIEEENREREWEREVLGIKRDKSDSPAIQLRLKEPMDVDVEDYYPAFLDMVRSLLDGNIDSSQYEDSLREMFTIHAYIAFTMDKLIQSIVRQLQHIVSDEICVQVTDLYLAENNNGATGGQLNTQNSRSLLESTYQRKAEQLMSDENCFKLMFIQSQGQVQLTIELLDTEEENSDDPVEAERWSDYVERYMNSDTTSPELREHLAQKPVFLPRNLRRIRKCQRGREQQEKEGKEGNSKKTMENVDSLDKLECRFKLNSYKMVYVIKSEDYMYRRTALLRAHQSHERVSKRLHQRFQAWVDKWTKEHVPREMAAETSKWLMGEGLEGLVPCTTTCDTETLHFVSINKYRVKYGTVFKAP
# Biological target: Krüppel-like factor 9 (KLF9) (human (endogenous in MDA-MB-231), UniProt Q13886 1-244)
# Sequence (Q13886 whole entry): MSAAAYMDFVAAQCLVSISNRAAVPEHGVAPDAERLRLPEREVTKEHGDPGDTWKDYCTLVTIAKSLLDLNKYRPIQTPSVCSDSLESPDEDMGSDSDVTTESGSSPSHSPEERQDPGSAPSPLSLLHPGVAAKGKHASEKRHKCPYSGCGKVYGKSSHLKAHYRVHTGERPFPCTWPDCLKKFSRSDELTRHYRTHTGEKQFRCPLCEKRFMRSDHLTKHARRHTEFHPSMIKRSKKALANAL
# Test: co-IP
binder,measurement,value
B1,fold increase of association after 24 h with 5 uM PF1-SID peptide,4.6 fold
same,fold increase of association in PF1-SID cells against vector cells,2.5 fold
